Source: patent publication US10280218B2, “Antibodies binding to BMP4, and uses thereof” (ACADEMISCH MEDISCH CENTRUM, priority 2014, dated 2019)

T1: BMP2 (Homo sapiens, UniProt P12643)
T1 sequence (P12643 283-396): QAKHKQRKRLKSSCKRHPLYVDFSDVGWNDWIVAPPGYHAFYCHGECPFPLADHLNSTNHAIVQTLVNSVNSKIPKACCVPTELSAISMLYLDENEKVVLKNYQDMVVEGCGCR

T2: BMP6 (Homo sapiens, UniProt P22004)
T2 sequence (P22004 375-513): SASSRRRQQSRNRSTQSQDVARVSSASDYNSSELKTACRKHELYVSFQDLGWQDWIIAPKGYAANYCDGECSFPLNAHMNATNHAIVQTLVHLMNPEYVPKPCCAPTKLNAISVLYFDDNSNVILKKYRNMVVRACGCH

T3: BMP5 (Homo sapiens, UniProt P22003)
T3 sequence (P22003 317-454): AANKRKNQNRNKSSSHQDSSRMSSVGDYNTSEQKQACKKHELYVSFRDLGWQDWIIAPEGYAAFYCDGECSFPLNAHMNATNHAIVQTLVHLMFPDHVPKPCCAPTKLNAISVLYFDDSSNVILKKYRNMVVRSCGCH

T4: BMP7 (Homo sapiens, UniProt P18075)
T4 sequence (P18075 293-431): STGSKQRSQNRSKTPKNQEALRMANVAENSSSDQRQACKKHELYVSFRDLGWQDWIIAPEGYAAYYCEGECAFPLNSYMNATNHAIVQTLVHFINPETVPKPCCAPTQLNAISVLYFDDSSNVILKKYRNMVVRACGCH

T5: BMP4 (Homo sapiens, UniProt P12644)
T5 sequence (P12644 293-408): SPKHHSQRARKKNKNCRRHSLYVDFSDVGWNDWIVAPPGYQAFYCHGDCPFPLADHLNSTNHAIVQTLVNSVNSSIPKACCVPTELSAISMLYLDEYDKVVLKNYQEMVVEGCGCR

T6: BMP2 (human)
T6 chain: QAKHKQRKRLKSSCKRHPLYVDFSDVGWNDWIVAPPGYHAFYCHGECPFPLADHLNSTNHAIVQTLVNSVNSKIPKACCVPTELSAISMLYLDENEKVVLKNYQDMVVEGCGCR

T7: BMP4 (human)
T7 chain: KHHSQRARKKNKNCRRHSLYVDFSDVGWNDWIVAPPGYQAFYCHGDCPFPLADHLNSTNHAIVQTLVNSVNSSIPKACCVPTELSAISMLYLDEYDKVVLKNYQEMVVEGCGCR


Assays:
BMP2 [1] = target: T1, BMP2; assay: Surface plasmon resonance (SPR), BMPs injected over VHH-coated chip; conditions: molecule coupled to chip, —: No binding detected
Method: (§1) In a first set of experiments, controls and VHHs (either as monomers or dimers) were coupled to SPR chips and the measurement of BMP affinities was obtained by injecting the different BMPs to the plate.
(§2) Serial dilutions (2.0-10 μg/ml) of purified VHHs were spotted on an amine-specific SensEye gold-film gel-type SPRchip (Ssens), using a Continuous Flow Microspotter (Wasatch Microfluidics, Salt Lake City, Utah, United States) as described (Lokate et al., 2007). BMP binding was analyzed on an IBIS MX96 (IBIS Technologies, Enschede, The Netherlands) instrument by performing injections with dilution series (0.05-2.0 μg/ml) of recombinant BMPs on the VHH-coated chip. In each injection, BMPs were injected and incubated for 8 min, followed by 15 min thorough washing with binding buffer (PBS+0.05% Tween20+0.05% sodium azide) to measure dissociation. Epitope binning was done by injecting VHH dilutions (2.0 μg/ml) over the chip, immediately after the dissociation step. Injections with blank binding buffer were used as reference. After each concatenated injection, the chip was regenerated with 10 mM glycine-HCl, pH 2.0. Experimental data were processed with SPRintX software (IBIS Technologies) and kinetic parameters were determined using Scrubber2 software (BioLogic Software, Campbell, ACT, Australia). Binding constants were obtained by global fitting to a one-site binding model.

BMP6 = target: T2, BMP6; assay: as above; conditions: molecule coupled to chip; unit inferred; — not defined there (Table 1: No binding detected)
Method: as §1, with “To confirm their BMP specificities and to elucidate their binding affinities, our VHHs were subjected to surface plasmon resonance (SPR) analysis. In” for “In”
as §2

BMP5 = target: T3, BMP5; assay: as above; format: binding; conditions: molecule coupled to chip; unit inferred
Method: as §1, with “To confirm their BMP specificities and to elucidate their binding affinities, our VHHs were subjected to surface plasmon resonance (SPR) analysis. In” for “In”
as §2

BMP7 = target: T4, BMP7; assay: as above; format: binding; conditions: molecule coupled to chip; unit inferred; — not defined there (Table 1: No binding detected)
Method: as §1, with “To confirm their BMP specificities and to elucidate their binding affinities, our VHHs were subjected to surface plasmon resonance (SPR) analysis. In” for “In”
as §2

BMP4 [2] = target: T5, BMP4; assay: as above; format: binding; parameters: purchased R&D systems; conditions: molecule coupled to chip
Method: as §1, with “To confirm their BMP specificities and to elucidate their binding affinities, our VHHs were subjected to surface plasmon resonance (SPR) analysis. In” for “In”
as §2

BMP2 [3] = target: T6, BMP2; assay: SPR
BMP4 [4] = target: T7, BMP4; assay: SPR
BMP2 [5] = target: T1, BMP2; assay: BMP activity luciferase reporter assay (BRE-luciferase, ID1 promoter) in C2C12 cells; format: cell-based, mouse; conditions: BMP2 50 ng/ml, 16 hours; 5 μg/ml
Method: One of the most studied BMP target genes is the Inhibitor of Differentiation 1 (ID1). This is an immediate early gene that is activated by binding of the phosphorylated SMADs to its promoter region (López-Rovira et al., 2002). Thus, we employed the BMP-responsive C2C12 cells, which are stably transfected with the BRE-luciferase vector containing the BMP-Responsive-Element (the mouse ID1 promoter) cloned into the pGL3 luciferase vector (Zilberberg 2007). […] C2C12 cells were treated with the different BMPs with or without our VHHs or human Noggin at a concentration of 5 μg/ml. Luciferase activity was measured after 16 hours incubation. Most of the transcriptional data is in concordance with the results obtained with the phosphorylation of SMAD1/5/8.
C2C12 cells were plated in 96-well plates at 5×10^3 cells/well and cells were allowed to attach overnight. 100 μl of DMEM with 0.1% BSA were added in each well. VHH antibodies and human Fc-Noggin at the indicated concentrations were added at the same time. Wells with unstimulated cells were added as controls. Cells were treated in triplicate with the BMPs at the indicated concentrations for 16 hours. Luciferase activity was measured by adding 100 μl of luciferase substrate solution from the Bright-Glo™ Luciferase Assay System (Promega Benelux, Leiden, The Netherlands). After 3 minutes of incubation, luciferase activity was measured with Synergy HT Multi-Mode Microplate Reader (Biotek, Winooski, Vt., United States). Luciferase values were normalized to background activity (activity of wells with no cells) and represented as ratio to the activity of BMP-stimulated cells.
To evaluate the extent of this increase in potency, the IC50 of the different VHHs were determined in a dose-dependent inhibition assay in C2C12 cells (FIG. 25). C2C12 cells were plated in 96-well plates at 5×10^3 cells/well and cells were allowed to attach overnight 100 μl of DMEM with 0.1% BSA were added in each well. VHH antibodies were added at the indicated concentrations at the same time as 5 ng/ml BMP4 (FIG. 25A-B, D) or 50 ng/ml of BMP2 (FIG. 25C,D). Luciferase activity was measured after 16 hours. Values are represented as ratio to the activity of BMP-stimulated cells. […] However, its effects were more striking for BMP2 rather than BMP4 inhibition. […] The IC50 values for BMP4 inhibition observed in our VHHs are considerably lower than those observed for anti-BMP4 commercially available from R&D (Katagiri et al 1994) and those described in WO_2008/030611.
C2C12 cells were cultured in 96-well plates at 5×10^3 cells/well. After overnight attachment cells were stimulated with 10 ng/ml hBMP4 (Cat No. 314-BP-020; R&D Systems), 50 ng/ml hBMP2 (Cat No. 355-BM-010; R&D Systems), 200 ng/ml hBMP5 (Cat No. 615-BMC-020; R&D Systems), 50 ng/ml hBMP6 (Cat No. 506-BP-020; R&D Systems), 200 ng/ml hBMP7 (Cat No. 354-BP-010; R&D Systems), 25 ng/ml hBMP9 (Cat No. 3209-BP-010; R&D Systems), 25 ng/ml hBMP10 (Cat No. 2926-BP-025; R&D Systems), 50 ng/ml hBMP12 (Cat No. 779-G7-010; R&D Systems) and with or without VHH antibodies: C4C4 and C8C8 at 500 ng/ml; natural antagonist: mNoggin (Cat No. 1967-NG-025; R&D Systems), hNoggin (Cat No. 6057-NG; R&D Systems) and mGremlin (cat#956-GR-050; R&D Systems) at 500 ng/ml; chemical antagonist: 0.5 μM LDN-193189 (Cat No. 11802; Cayman Chemical) and 0.2 μM DMH1 (Cat No. 57146; Selleckchem).
VHH efficacy was evaluated by stimulating cells with 10 ng/ml of hBMP4 and 50 ng/ml of hBMP2, with and without increase concentrations (from 0.1-10 μg/ml) of VHH and anti-BMP4 antibodies: clone 66119, clone 3H2, clone M912262, clone PA354-16.1.1, Clone EPR6211, and anti-BMP4 (ab39973). […] Unstimulated cells were used as controls and wells with no cells used to normalize the background activity. […]

Row | Molecule | Kd (BMP2 [3]) [pM] | Kd (BMP4 [4]) [pM] | other results
1 | BMPR1a: type I BMP receptor used as control in SPR [reference compound] |  |  | kd (BMP2) (BMP2 [1]): 14.0 10^−5 sec^−1; Kd (BMP6): 24000 pM; Kd (BMP5): 60000 pM; Kd (BMP7): 131000 pM; kd (BMP4) (BMP4 [2]): 9.2 10^−5 sec^−1
2 | C8-E7 (antibody, V domains shown) V domain 1: EVQLVESGGGLVQAGGSLRLSCAASGRTFRINDMGWYRQAPGKSRDMVARITSGGNTNYADSVKGRFTISRDNAKNTVYLQMNSLKPEDTAVYYCNADGLRFDSTRYRPFDSWGQGTQVTVSS V domain 2: EVQLVESGGGLVQAGGSLRLSCAASGSIRGFVAMAWYRQAPGKQREWVATVTNGGTLYGDSVKGRFTGSRDNAKNTVYLQMNSLKPEDTAVYYCALRQIGASGYDYWGQGTQVTVSS | 554 | 99 | 
3 | C4-C4 (antibody, V domains shown) V domain 1: EVQLVESGGGLVQAGGSLRLSCAASGRTFSTYAMGWFRQAPGKEREFVAAISKGGGITYYSDSVRGRFTISKENAKNTVYLQMNSLKPEDTAVYYCAADPVSSVAKSPVAYPYWGQGTQVTVSS V domain 2: EVQLVESGGGLVQAGGSLRLSCAASGRTFSTYAMGWFRQAPGKEREFVAAISKGGGITYYSDSVRGRFTISKENAKNTVYLQMNSLKPEDTAVYYCAADPVSSVAKSPVAYPYWGQGTQVTVSS | 2150 | 9.7 | 
4 | D99A of C4: mutational variant of VHH C4, single substitution D99A (protein) VHH: EVQLVESGGGLVQAGGSLRLSCAASGRTFSTYAMGWFRQAPGKEREFVAAISKGGGITYYSDSVRGRFTISKENAKNTVYLQMNSLKPEDTAVYYCAAAPVSSVAKSPVAYPYWGQGTQVTVSS |  |  | inhibition of BMP2-mediated transcriptional activation (BMP2 [5]): C4 nor its D99A mutant, had any effect

Further lines, with some results ahead:

Row | Kd (BMP2 [3]) [pM] | Kd (BMP4 [4]) [pM] | Molecule | other results
5 | 1070 | 512 | E7 (antibody, V domains shown) VH: EVQLVESGGGLVQAGGSLRLSCAASGSIRGFVAMAWYRQAPGKQREWVATVTNGGTLYGDSVKGRFTGSRDNAKNTVYLQMNSLKPEDTAVYYCALRQIGASGYDYWGQGTQVTVSS | 
6 | 62.8 | 31 | C8-C8 (antibody, V domains shown) V domain 1: EVQLVESGGGLVQAGGSLRLSCAASGRTFRINDMGWYRQAPGKSRDMVARITSGGNTNYADSVKGRFTISRDNAKNTVYLQMNSLKPEDTAVYYCNADGLRFDSTRYRPFDSWGQGTQVTVSS V domain 2: EVQLVESGGGLVQAGGSLRLSCAASGRTFRINDMGWYRQAPGKSRDMVARITSGGNTNYADSVKGRFTISRDNAKNTVYLQMNSLKPEDTAVYYCNADGLRFDSTRYRPFDSWGQGTQVTVSS | 
7 | 880 | 392 | C8 (antibody, V domains shown) VH: EVQLVESGGGLVQAGGSLRLSCAASGRTFRINDMGWYRQAPGKSRDMVARITSGGNTNYADSVKGRFTISRDNAKNTVYLQMNSLKPEDTAVYYCNADGLRFDSTRYRPFDSWGQGTQVTVSS | 
8 |  | 635 | BMPR1a (protein) QNLDSMLHGTGMKSDSDQKKSENGVTLAPEDTLPFLKCYCSGHCPDDAINNTCITNGHCFAIIEEDDQGETTLASGCMKYEGSDFQCKDSPKAQLRRTIECCRTNLCNQYLQPTLPPVVIGPFFDGSIR | 
